We go through one molecule from US20150197796, “SSB METHOD” (OXFORD NANOPORE TECHNOLOGIES LIMITED, published 2015).

The target of the data set is EcoSSB-Q152del (C-terminal truncated SSB) (Escherichia coli, UniProt P0AGE0 SEQ:1-152). The data set is described as follows: EMSA; complex formation not impaired vs WT; 5% TBE gel. The following applies: tags: N-terminal His6-TEV site removed; chain copies: 4 inferred.

B1: 70mer polyT (ssDNA)
DNA: TTTTTTTTTTTTTTTTTTTTTTTTTTTTTTTTTTTTTTTTTTTTTTTTTTTTTTTTTTTTTTTTTTTTTT
B1: the binding result is listed as “binds”.
